Laboratory results as given in article doi:10.1101/636423 (bioRxiv, 2019).

Target: the molecule itself
Assay: native MS

B1: whole intracellular region of rat PTPRZ (rat PTPRZ-ICR) (domain or fragment)
chain: not shown
Kd: ~7 µM
stoichiometry N: 2
